Laboratory results reported in patent US20160051654A1 (IMMATICS BIOTECHNOLOGIES, published 2016).
Ends that are not written are not given here.

Legend:
[1] = biological target: T1, HLA-A*0201 (recombinant HLA-A*0201 heavy chain with human beta-2 microglobulin) (human); test: EpI ELISA: refolding of recombinant HLA-A*0201 with b2m and graded peptide
[2] = biological target: T1, HLA-A*0201 (recombinant HLA-A*0201 …); test: ELISA-based refolding assay: recombinant HLA-A*0201, b2m and graded peptide

Binder | binding result [1] | other results
KIFDEILVNA (also called IMA-TOP-001) [TOP-001] | binds | –
ALSNLEVTL (also: acetate salt, also called IMA-C20-001) [C20-001] | binds | –
KLTDIQIEL [JAK-001] | – | binding result [2]: binds
KLGDFGLATVV [DCA-001] | – | binding result [2]: binds
ALFVRLLALA (also called IMA-TGFBI-001) [TGFBI-001] | – | fold lower KD compared with the majority of peptides [1]: 100 fold

The next lines start with results.

binding result [1] | Binder | other results
binds | ILAPVILYI (also called IMA-NOX-001) [NOX-001] | –
binds | KLMDLDVEQL (also called IMA-PCN-001) [PCN-001] | –
